Columns and labels:
rice HPPD (OsHPPD) = assay: Color reaction of recombinant E. coli expressing wild-type or mutant rice HPPD, cultured in 96-well plate in medium containing an HPPD-inhibiting herbicide and tyrosine; type: cell-based, Oryza sativa; design: key to relative resistance to Tembotrione / relative resistance to Benzuofucaotong metabolic product / relative resistance to Huanbifucaotong / relative resistance to Topramezone / relative resistance to Mesotrione / resistance to Tembotrione / resistance to Benzucfucaotong metabolic product / resistance to Huanbifucaotong / resistance to Topramezone / resistance to Mesotrione: The more the plus sign “+”, the deeper the color and the higher the resistance/tolerance as compared to the wild type; details: for resistance ranking in color reaction: compound 101
Text: The rice full-length OsHPPD enzyme has 446 amino acids and its amino acid sequence is set forth in SEQ ID NO: 2, wherein the amino acids 1-50 are considered to constitute a signal peptide which is responsible for directing into chloroplast (Siehl et al. Plant Physiol. 2014 November; 166(3): 1162-1176). Therefore, from the amino acid at the 51-position to the amino acid at the […], a saturated random mutation was made for each amino acid. This was achieved by performing a bridge PCR by using a primer containing a coding sequence of an amino acid to be mutated into NNK and another suitable conventional primer. In NNK, N represented A/T/G/C and K represented G/T, and the NNK codon could encode any one of 20 amino acids or terminators. Accordingly, this was a saturated mutation. Please see: Kille S. Acevedo-Rocha C G, Parra L P, Zhang Z G, Opperman D J, Reetz M T, Acevedo J P (2013) Reducing codon redundancy and screening effort of combinatorial protein libraries created by saturation mutagenesis. ACS Synth Biol 2(2):83-92; Directed Evolution Library Creation: methods and protocols 2nd ed. Edited by Elizabeth M. J. Gillam, Janine N. Copp and David F. Ackerley New York, NY United States: Springer, 2014. doi:10.1007/978-1-4939-1053-3. A large number of mutants would be produced. The mutant was cloned into a linearized pET-44a vector and transformed into E. co/i, which was cultivated by using a 96-well plate in a 2×YT culture solution containing an HPPD-inhibiting herbicide (such as 1-2 μM tembotrione) and a substrate tyrosine (1 g/L) in a shaker at 28° C. and 150 rpm for 24 hours for expression, and then the mutants were rapidly screened out according to their color browning. By using the method, 10 single amino acid mutants, A103S, H141R, H141 K, H141T, A165V, V191I, R220K, G342D, D370N and K410I, were screened out. The color reaction of these resistant mutants in the presence of tembotrione and the metabolic product of benzuofucaotong relative to that of the wild type was as shown in FIG. 1.
Similarly, the color reaction of these mutants in the presence of the other three HPPD-inhibiting herbicides huanbifucaotong, topramezone and mesotrione were determined, see FIGS. 2 and 3. The resistance/tolerance of each of the mutants to the five herbicides was roughly estimated on the basis of color changes thereof and the results were shown in Table 1. The more the plus sign “+”, the deeper the color and the higher the resistance/tolerance as compared to the wild type.
HPPD-inhibiting herbicides inhibited HPPD enzymatic activity. When tyrosine was converted to 4-hydroxyphenylpyruvate (HPP) under the action of tyrosine transaminase, the inactivated HPPD was unable to oxidize 4-hydroxyphenylpyruvate into homogentisic acid (HGA). HGA was dark brown. Therefore, if an HPPD mutant was resistant to or tolerant to an herbicide, after expressed in E. coli, the mutant could also oxidize 4-hydroxyphenylpyruvate into homogentisic acid, whereby dark brown appeared. Therefore, E. coli was cultured in a 2×YT culture medium containing a HPPD-inhibiting herbicide and a substrate tyrosine using a 96-well plate to express HPPD, and these mutants were rapidly screened according to their color changes. • (1) Preparation of 2×YT culture medium (1 g/L L-Tyr, 0.1 mM IPTG, 0.01 mM MnCl2 and 100 mg/L ampicillin were added). • (2) 0.1 mL of the above medium was added to each well of a 96-well plate, and the expression clones of OsHPPD wild type or mutant (OsHPPD Mut) from the E. coli plate obtained by the above transformation were subjected to liquid culture in the 96-well plate. HPPD inhibitors having a final concentration of 1 μM-20 μM were added according to different selected agents, for example, the final concentration of tembotrione was 1.7 μM while mesotrione was 10 μM. […]

OsHPPD = assay: HPPD enzyme activity assay: Km, Kcat and Kcat/Km of OsHPPDs; type: biochemical, Oryza sativa; details: substrate 4-HPP
Description: The rice OsHPPD protein and homogentisate 1,2-dioxygenase (HGD) were obtained by heterologously expressed in E. coli wherein the gene was inserted into the pET 15b expression vector and expressed in the BL21 (DE3) expression strain, and purified by the Ni-NTA resin. • (1) The HPPD open reading frame (ORF) of the positive clone was cloned into the pET-15b vector to form a 6His-HPPD expression vector, and transformed into the BL21 (DE3) cell. The expression strain was inoculated in 10 mL of 2×YT culture medium, and cultivated overnight on a shaker at 37° C. and 200 rpm. The 10 mL of the culture was inoculated in 1 L of 2×YT culture medium and cultivated until the OD600 reached 0.6-0.8, cooled to a temperature of 16° C., and subjected to induced-expression with 0.2 mM IPTG (isopropyl thiogalactoside) overnight. The strains were collected by centrifugation at 2800×g. • (2) The collected strains were re-suspended with the buffer A (50 mM Tris pH 8.0, 500 mM NaCl, 20 mM imidazole), to which PMSF (phenylmethanesulfonyl fluoride) at the final concentration of 1 mM and 250 μL of a protease inhibitor cocktail (i.e., a mixture of multiple protease inhibitors), and mixed. The cells were broken by ultrasound in ice-bath (40% total power, work for 3 seconds/6 seconds interval, 2×30 minutes (Ningbo Scientz Biotechnology Co., Ltd., Ningbo, China)), and centrifuged at 12000 rpm at 4° C. for 30 minutes; and the supernatant was filtered with a 0.22 μm filter membrane. • (3) Purification with the Ni-NTA column: the supernatant was in contact with the Ni-NTA resin, then rinsed with a buffer A containing 50 mM imidazole to remove the impurities, and finally, eluted with an elution buffer containing 400 mM imidazole. • (4) The approximate purity of the protein of interest was analyzed by SDS-PAGE. The eluates containing of the protein of interest were combined and concentrated by an ultrafiltration device (10 kDa molecular weight cut-off, Amicon Ultra). The solution was replaced with a solution containing 20 mM Tris-HCl and having a pH of 7.5 for at least 3 times to desalt. The total protein concentration was determined by the BCA method.
(§1) • 1. The activity of a HPPD enzyme was determined by detecting the conversion of 4-hydroxyphenylpyruvate (4-HPP) to homogentisic acid (HGA) catalyzed by the HPPD enzyme and the conversion of HGA to maleylacetoacetate (MAA) catalyzed by homogentisate dioxygenase. […] 6 μl of 4-hydroxyphenylpyruvate (4-HPP) having a concentration that was as 50 times as the final concentration of the substrate were added to an ELSA plate, and then 294 μL of hydroxyethylpiperazine ethanesulfonic acid (HEPES) with a final concentration of 25 mM and pH of 7, 2 mM of Vitamin C, 10 mM FeSO4, 50 nM homogentisate dioxygenase and 5 to 240 nM HPPD enzyme were added thereto at one time. The final concentration of reaction substrate 4-HPP usually ranged from 1 to 100 μM. • 3. The absorbance changes of the reaction wells at 318 nm were continuously monitored by a UV ELISA detector (ReadMax 1900 photoabsorption type full-wavelength microplate reader) (Shanghai). • 4. Determination of Km, Kcat and Kcat/Km of OsHPPDs
Vmax is the maximum catalytic reaction rate achievable by enzymatic catalysis. The Michaelis constant Km is the concentration of a substrate required when the enzyme catalyzed the reaction to achieve half of the maximum rate (Vmax). The Km value is a constant and independent of the enzyme concentration, and altered as substrate type, reaction temperature, pH, and ionic strength changed. […] is a catalytic constant of an enzyme and referred to the number of substrate molecules that could be catalyzed by an enzyme molecule or enzyme active center per second. KCat/Km represents the catalytic efficiency of enzyme. It could be seen from the data in the table that the catalytic efficiency of most HPPD mutants was enhanced.

OsHPPD proteins = assay: Inhibitory activity (IC50) of the herbicide 101 and huanbifucaotong against OsHPPD proteins; type: biochemical, Oryza sativa; details: for resistance in in vitro enzyme activity experiments: herbicides 101 and huanbifucaotong
Description: as §1
• 5. Determination of inhibitory activity (IC50) of the herbicide 101 and huanbifucaotong against OsHPPD proteins
Due to the unique properties of each of 101 and huangbifucaotong, the degree of the increased IC50 value is not completely consistent for the two HPPD herbicides.

[1] = Table 1, single-site mutants, estimated from color change, wild type = +
[2] = Table 3, single-site and multi-site mutants, different time and plates, estimated from color shades

Row | Molecule | resistance ranking in color reaction (rice HPPD (OsHPPD)) | Km (OsHPPD) [µM] | resistance in in vitro enzyme activity experiments (OsHPPD proteins) | relative resistance to Benzuofucaotong metabolic product (rice HPPD (OsHPPD); [1]) | relative resistance to Huanbifucaotong (rice HPPD (OsHPPD); [1]) | relative resistance to Mesotrione (rice HPPD (OsHPPD); [1]) | relative resistance to Tembotrione (rice HPPD (OsHPPD); [1]) | relative resistance to Topramezone (rice HPPD (OsHPPD); [1]) | resistance to Benzucfucaotong metabolic product (rice HPPD (OsHPPD); [2]) | resistance to Huanbifucaotong (rice HPPD (OsHPPD); [2]) | resistance to Mesotrione (rice HPPD (OsHPPD); [2]) | resistance to Tembotrione (rice HPPD (OsHPPD); [2]) | resistance to Topramezone (rice HPPD (OsHPPD); [2]) | concentration of compound 101 at which activity is completely inhibited (OsHPPD proteins; FIG. 10 inhibition curve)
1 | N338D/G342D/R346H: mutant rice HPPD (protein, listed as Oryza sativa, The amino acid sequence of Wild-Type rice HPPD protein (OsHPPD _WT)) MPPTPTPTATTGAVSAAAAAGENAGFRLVGHRRFVRANPRSDRFQALAFHHVELWCADAASAAGRFAFALGAPLAARSDLSTGNSAHASLLLRSASVAFLFTAPYGGDHGVGADAATTASIPSFSPGAARRFAADHGLAVHAVALRVADAADAFRASVAAGARPAFQPADLGGGFGLAEVELYGDVVLRFVSHPDGADAPFLPGFEGVSNPGAVDYGLRRFDHVVGNVPELAPVAAYISGFTGFHEFAEFTAEDVGTAESGLNSVVLANNAETVLLPLNEPVHGTKRRSQIQTYLDHHGGPGVQHIALASDDVLGTLREMRARSAMGGFEFLAPPPPDYYDDVRRHAGDVLSEEQINECQELGVLVDRDDQGVLLQIFTKPVGDRPTFFLEMIQRIGCMEKDESGQEYQKGGCGGFGKGNFSELFKSIEEYEKSLEAKQAPTVQGS | highest resistance | 6.3 | good resistance |  |  |  |  |  |  |  |  |  |  | 
2 | WT: wild-type rice p-hydroxyphenylpyruvate dioxygenase (OsHPPD), SEQ ID NO: 2 (protein, listed as Oryza sativa, The amino acid sequence of Wild-Type rice HPPD protein (OsHPPD _WT)) MPPTPTPTATTGAVSAAAAAGENAGFRLVGHRRFVRANPRSDRFQALAFHHVELWCADAASAAGRFAFALGAPLAARSDLSTGNSAHASLLLRSASVAFLFTAPYGGDHGVGADAATTASIPSFSPGAARRFAADHGLAVHAVALRVADAADAFRASVAAGARPAFQPADLGGGFGLAEVELYGDVVLRFVSHPDGADAPFLPGFEGVSNPGAVDYGLRRFDHVVGNVPELAPVAAYISGFTGFHEFAEFTAEDVGTAESGLNSVVLANNAETVLLPLNEPVHGTKRRSQIQTYLDHHGGPGVQHIALASDDVLGTLREMRARSAMGGFEFLAPPPPNYYDGVRRRAGDVLSEEQINECQELGVLVDRDDQGVLLQIFTKPVGDRPTFFLEMIQRIGCMEKDESGQEYQKGGCGGFGKGNFSELFKSIEEYEKSLEAKQAPTVQGS |  | 6.7 |  | + | + | + | + | + | + | + | + | + | + | about 60 μM
3 | H141R/N338D/G342D/K418P: mutant rice HPPD (protein) MPPTPTPTATTGAVSAAAAAGENAGFRLVGHRRFVRANPRSDRFQALAFHHVELWCADAASAAGRFAFALGAPLAARSDLSTGNSAHASLLLRSASVAFLFTAPYGGDHGVGADAATTASIPSFSPGAARRFAADHGLAVRAVALRVADAADAFRASVAAGARPAFQPADLGGGFGLAEVELYGDVVLRFVSHPDGADAPFLPGFEGVSNPGAVDYGLRRFDHVVGNVPELAPVAAYISGFTGFHEFAEFTAEDVGTAESGLNSVVLANNAETVLLPLNEPVHGTKRRSQIQTYLDHHGGPGVQHIALASDDVLGTLREMRARSAMGGFEFLAPPPPDYYDDVRRRAGDVLSEEQINECQELGVLVDRDDQGVLLQIFTKPVGDRPTFFLEMIQRIGCMEKDESGQEYQKGGCGGFGPGNFSELFKSIEEYEKSLEAKQAPTVQGS | strongest resistance | 18.8 | higher resistance |  |  |  |  |  |  |  |  |  |  | 

Source: US12428627B2, “Mutant p-hydroxyphenylpyruvate dioxygenase, and coding nucleic acid and use thereof” (Qingdao Kingagroot Chemical Compound Co., Ltd., priority 2018, dated 2025)
